From paper PMC11362013, “Mechanism for controlled assembly of transcriptional condensates by Aire” (Nature Immunology, 2024)

T1: CBP TAZ2 (mouse, UniProt P45481 1764-1855)
T1 construct: the recombinant construct itself is described in the Supplementary Note; also called isolated CBP TAZ2; recombinant CBP TAZ2; source: E. coli, purified (details in the Supplementary Note)
T1 sequence (looked up): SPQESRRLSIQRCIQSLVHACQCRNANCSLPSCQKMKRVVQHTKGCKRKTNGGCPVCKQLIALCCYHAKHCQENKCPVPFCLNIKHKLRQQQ

T2: CBP TAZ2 (mouse, UniProt P45481 1764-1855)
T2 chain: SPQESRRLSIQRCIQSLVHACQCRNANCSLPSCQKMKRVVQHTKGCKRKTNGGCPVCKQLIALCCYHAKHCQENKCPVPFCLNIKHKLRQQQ


Legend:
[1] = biological target: FAM-labeled H3 peptide (aa 1-21) with no modification (UniProt P68431); assay: fluorescence polarisation; 50 nM fluorescein-labeled H3 peptide, increasing PHD (0-900 μM) in SEC Buffer (25 mM HEPES pH 7.5, 100 mM NaCl, 5 mM BME), 25 °C; simple binding isotherm
[2] = biological target: FAM-labeled H3 peptide (aa 1-21) with K4me1 (UniProt P68431); assay: as above
CBP TAZ2 [3] = biological target: T1, CBP TAZ2; assay: ITC; 760 μM mouse Aire CTT in the syringe, 19-76 μM TAZ2 in the cell; 20 °C; 20 mM HEPES pH 7.5, 100 mM NaCl, 1 mM dithiothreitol; two-site binding model; settings: both partners purified
CBP TAZ2 [4] = biological target: T2, CBP TAZ2; assay: ITC; two-site model, second site

Row | Kd [1] [µM] | Kd [2] [µM] | Kd of the high-affinity site (two-site model) (CBP TAZ2 [3]) [µM] | Kd of the second, low-affinity site (two-site model) (CBP TAZ2 [3]) [µM] | Kd (CBP TAZ2 [4]) [µM] | Molecule
1 | 45.3 |  |  |  |  | CHD4 PHD2 (domain or fragment)
2 | 5.25 | 23.2 |  |  |  | mouse Aire PHD1 (domain or fragment)
3 |  |  | 0.26 | 40 | 39.7 | mouse Aire CTT (aa 480-552) (domain or fragment, UniProt Q9Z0E3 480-552, looked up, Aire (autoimmune regulator), mouse, C-terminal tail (CTT), residues 480-552; Used in NMR (15N13C-labelled) and ITC; whether tags were left on it is told only in the Supplementary Note; also called isolated CTT; source: E. coli, purified (details in the Supplementary Note)) TPTPGTPGEAVPTSGPRPAPGLAKVGDDSASHDPVLHRDDLESLLNEHSFDGILQWAIQSMSRPLAETPPFSS
